From US20240376170A1 (BRIGHT PEAK THERAPEUTICS, published 2024)
Bridges are numbered along the chain shown (N, C = ends). Primed or numbered codes have the meaning given here. [ ]: non-standard residue; d: D form. 8x polyethylene glycol‑amino = O-(8x polyethylene glycol-amino)-tyrosine, SITE 45; 9x polyethylene glycol‑azido = O-(9x polyethylene glycol-azido)-tyrosine, SITE 42; Ygp(4) = Tyr with amino-capped PEG8 (O-(8x polyethylene glycol-amino)-tyrosine); Yn3(4) = Tyr with azide-capped PEG9 (O-(9x polyethylene glycol-azido)-tyrosine); Ygp = O-(8x polyethylene glycol-amino)-tyrosine (Tyr, amino-capped PEG8); Yn3 = O-(9x polyethylene glycol-azido)-tyrosine (Tyr, azide-capped PEG9); Ygp″ = O-(8x polyethylene glycol-amino)-tyrosine; Yn3″ = O-(9x polyethylene glycol-azido)-tyrosine; Ygp(6) = Tyr, amino-capped PEG8; Yn3(6) = Tyr, azide-capped PEG9; PEG4′ = 4x polyethylene glycol; hSer = N[C@@H](CCO)C(=O)O; Nle = CCCC[C@H](N)C(=O)O

T1: IL-2Rβγ on HEK-Blue IL-2Rβγ reporter cells (InvivoGen) (UniProt P14784 27-551; P31785 23-369, limits assumed)
T1 sequence (looked up) 1: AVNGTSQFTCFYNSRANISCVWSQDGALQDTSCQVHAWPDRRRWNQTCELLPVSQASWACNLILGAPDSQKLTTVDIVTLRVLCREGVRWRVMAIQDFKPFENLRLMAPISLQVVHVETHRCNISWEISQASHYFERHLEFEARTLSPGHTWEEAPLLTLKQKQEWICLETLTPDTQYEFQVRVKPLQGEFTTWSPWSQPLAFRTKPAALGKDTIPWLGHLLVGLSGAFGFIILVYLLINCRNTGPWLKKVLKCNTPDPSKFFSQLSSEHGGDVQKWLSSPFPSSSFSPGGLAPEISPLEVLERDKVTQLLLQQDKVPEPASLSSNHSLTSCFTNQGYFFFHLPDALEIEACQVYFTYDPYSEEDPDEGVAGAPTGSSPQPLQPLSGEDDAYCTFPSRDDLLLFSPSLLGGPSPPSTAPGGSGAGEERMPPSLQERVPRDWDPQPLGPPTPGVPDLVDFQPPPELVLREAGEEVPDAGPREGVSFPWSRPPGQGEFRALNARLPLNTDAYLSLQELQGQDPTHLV
T1 sequence (looked up) 2: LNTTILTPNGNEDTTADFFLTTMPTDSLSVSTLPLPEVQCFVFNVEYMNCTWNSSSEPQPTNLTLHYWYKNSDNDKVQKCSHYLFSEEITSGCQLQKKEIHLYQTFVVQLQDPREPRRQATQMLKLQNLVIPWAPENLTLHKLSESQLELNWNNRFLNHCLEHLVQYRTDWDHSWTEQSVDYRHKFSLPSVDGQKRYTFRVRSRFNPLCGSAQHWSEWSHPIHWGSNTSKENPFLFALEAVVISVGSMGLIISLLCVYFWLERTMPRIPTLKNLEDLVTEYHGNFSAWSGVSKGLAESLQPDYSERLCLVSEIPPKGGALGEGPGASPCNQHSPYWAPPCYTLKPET


The binders below were run against T1, IL-2Rβγ on HEK-Blue IL-2Rβγ reporter … (assay: cell-based or functional assay).

Row | Average EC50, HEK-Blue IL-2R (CD122+, CD132+) Reporter Assay, Matriptase cleaved molecule | Average EC50, HEK-Blue IL-2R (CD122+, CD132+) Reporter Assay, intact molecule | Average EC50, HEK-Blue IL-2R (CD122+, CD132+) Reporter Assay, MMP2 cleaved molecule | Binder
1 | – | 0.775 nM | – | CMP-320 (ligand, lactam N-34) SGRVAPQPLVDAPTSSSTKKTQLQLEHLLLDLQEILNGINNYKNPKLTR[Nle]L[hSer][Yn3(6)]KF[Ygp(6)][Nle]PKKATELKHLQCLEEELKPLEEVL[hSer]LAQSKNFHLRPRDLISNINVIVLELKGSETTF[hSer]CEYADETATIVEFLNRWITFSQSIISTLT
2 | – | 1.73 nM | – | CMP-330 (ligand, bridge 9-23; not fully specified (bridges)) APTSSSTKKTQLQLEHLLLDLQEILNGINNYKNPKLTR[Nle]L[hSer]Y(9x polyethylene glycol‑azido)KFY(8x polyethylene glycol‑amino)[Nle]PKKATELKHLQCLEEELKPLEEVL[hSer]LAQSKNFHLRPRDLISNINVIVLELKGSETTF[hSer]CEYADETATIVEFLNRWITFSQSIISTLT
3 | – | 3.37 nM | – | CMP-318 (ligand, lactam N-32; ends not checked) SGRVANLVGAPTSSSTKKTQLQLEHLLLDLQEILNGINNYKNPKLTR[Nle]L[hSer][Yn3]KF[Ygp][Nle]PKKATELKHLQCLEEELKPLEEVL[hSer]LAQSKNFHLRPRDLISNINVIVLELKGSETTF[hSer]CEYADETATIVEFLNRWITFSQSIISTLT
4 | – | 4.2 nM | – | CMP-321 (ligand, lactam N-32) SGRVQPLVDAPTSSSTKKTQLQLEHLLLDLQEILNGINNYKNPKLTR[Nle]L[hSer][Yn3(6)]KF[Ygp(6)][Nle]PKKATELKHLQCLEEELKPLEEVL[hSer]LAQSKNFHLRPRDLISNINVIVLELKGSETTF[hSer]CEYADETATIVEFLNRWITFSQSIISTLT
5 | – | – | 0.0702 nM | CMP-329, MMP2 cleaved (ligand, ends and bridges not checked; also: after MMP2 cleavage, remnants of the Lys9–Glu23 peptide linker not given here) APTSSSTKKTQLQLEHLLLDLQEILNGINNYKNPKLTR[Nle]L[hSer][Yn3″]KF[Ygp″][Nle]PKKATELKHLQCLEEELKPLEEVL[hSer]LAQSKNFHLRPRDLISNINVIVLELKGSETTF[hSer]CEYADETATIVEFLNRWITFSQSIISTLT
6 | – | – | 0.558 nM | CMP-330, MMP2 cleaved (ligand, not fully specified; also: before the cut Lys9 and Glu23 side chains are bridged by a peptide linker, what remains after the cut not given here) APTSSSTKKTQLQLEHLLLDLQEILNGINNYKNPKLTR[Nle]L[hSer]Y(9x polyethylene glycol‑azido)KFY(8x polyethylene glycol‑amino)[Nle]PKKATELKHLQCLEEELKPLEEVL[hSer]LAQSKNFHLRPRDLISNINVIVLELKGSETTF[hSer]CEYADETATIVEFLNRWITFSQSIISTLT
7 | – | 1.7 nM | – | CMP-329 (ligand, bridge 9-23; not fully specified (bridges); ends not checked) APTSSSTKKTQLQLEHLLLDLQEILNGINNYKNPKLTR[Nle]L[hSer][Yn3″]KF[Ygp″][Nle]PKKATELKHLQCLEEELKPLEEVL[hSer]LAQSKNFHLRPRDLISNINVIVLELKGSETTF[hSer]CEYADETATIVEFLNRWITFSQSIISTLT

The remaining lines, values behind:

Row | Binder | Average EC50, HEK-Blue IL-2R (CD122+, CD132+) Reporter Assay, Matriptase cleaved molecule | Average EC50, HEK-Blue IL-2R (CD122+, CD132+) Reporter Assay, intact molecule | Average EC50, HEK-Blue IL-2R (CD122+, CD132+) Reporter Assay, MMP2 cleaved molecule
8 | CMP-315, matriptase cleaved (ligand, ends and bridges not checked; also: further groups not given here, tested after matriptase cleavage, remaining product not given here) APTSSSTKKTQLQLEHLLLDLQKILNGINNYKNPKLTR[Nle]L[hSer][Yn3]KF[Ygp][Nle]PKKATELKHLQCLEEELKPLEEVL[hSer]LAQSKNFHLRPRDLISNINVIVLELKGSETTF[hSer]CEYADETATIVEFLNRWITFSQSIISTLT | 0.0349 nM | – | –
9 | CMP-317 (ligand, bridge N-31; not fully specified (bridges); ends not checked) GSGSGSG[PEG4′]APTSSSTKKTQLQLEHLLLDLQEILNGINNYKNPKLTR[Nle]L[hSer][Yn3]KF[Ygp][Nle]PKKATELKHLQCLEEELKPLEEVL[hSer]LAQSKNFHLRPRDLISNINVIVLELKGSETTF[hSer]CEYADETATIVEFLNRWITFSQSIISTLT | – | 2.24 nM | –
10 | CMP-304, MMP2 cleaved (ligand, ends and bridges not checked; also: MMP2 cleaved, ring opened, cut site and remnants not given here) PLGLAGAPTSSSTKKTQLQLEHLLLDLQEILNGINNYKNPKLTR[Nle]L[hSer][Yn3(4)]KF[Ygp(4)][Nle]PKKATELKHLQCLEEELKPLEEVL[hSer]LAQSKNFHLRPRDLISNINVIVLELKGSETTF[hSer]CEYADETATIVEFLNRWITFSQSIISTLT | – | – | 0.021 nM
11 | CMP-305, MMP2 cleaved (ligand, ends and bridges not checked; also: Glu15 and Lys23 side chains carried cleaved peptide linker, remnants after MMP2 cut not given here) APTSSSTKKTQLQLEHLLLDLQKILNGINNYKNPKLTR[Nle]L[hSer][Yn3(4)]KF[Ygp(4)][Nle]PKKATELKHLQCLEEELKPLEEVL[hSer]LAQSKNFHLRPRDLISNINVIVLELKGSETTF[hSer]CEYADETATIVEFLNRWITFSQSIISTLT | – | – | 0.0185 nM
12 | CMP-316, MMP2 cleaved (ligand, ends and bridges not checked; also: further groups not given here, tested after MMP2 cleavage, remaining product not given here) APTSSSTKKTQLQLEHLLLDLQKILNGINNYKNPKLTR[Nle]L[hSer][Yn3]KF[Ygp][Nle]PKKATELKHLQCLEEELKPLEEVL[hSer]LAQSKNFHLRPRDLISNINVIVLELKGSETTF[hSer]CEYADETATIVEFLNRWITFSQSIISTLT | – | – | 0.0963 nM
13 | CMP-315, MMP2 cleaved (ligand, ends and bridges not checked; also: MMP2-cleaved, product after cut not given here, further groups not given here) APTSSSTKKTQLQLEHLLLDLQKILNGINNYKNPKLTR[Nle]L[hSer][Yn3(4)]KF[Ygp(4)][Nle]PKKATELKHLQCLEEELKPLEEVL[hSer]LAQSKNFHLRPRDLISNINVIVLELKGSETTF[hSer]CEYADETATIVEFLNRWITFSQSIISTLT | – | – | 0.0418 nM
14 | CMP-315 (ligand, ends and bridges not checked; also: further groups not given here) APTSSSTKKTQLQLEHLLLDLQKILNGINNYKNPKLTR[Nle]L[hSer][Yn3(4)]KF[Ygp(4)][Nle]PKKATELKHLQCLEEELKPLEEVL[hSer]LAQSKNFHLRPRDLISNINVIVLELKGSETTF[hSer]CEYADETATIVEFLNRWITFSQSIISTLT | – | 0.0554 nM | –
15 | CMP-316 (ligand, ends and bridges not checked; also: further groups not given here) APTSSSTKKTQLQLEHLLLDLQKILNGINNYKNPKLTR[Nle]L[hSer][Yn3]KF[Ygp][Nle]PKKATELKHLQCLEEELKPLEEVL[hSer]LAQSKNFHLRPRDLISNINVIVLELKGSETTF[hSer]CEYADETATIVEFLNRWITFSQSIISTLT | – | 0.0968 nM | –
16 | CMP-305 (ligand, bridge 15-23; not fully specified (bridges); ends not checked) APTSSSTKKTQLQLEHLLLDLQKILNGINNYKNPKLTR[Nle]L[hSer][Yn3(4)]KF[Ygp(4)][Nle]PKKATELKHLQCLEEELKPLEEVL[hSer]LAQSKNFHLRPRDLISNINVIVLELKGSETTF[hSer]CEYADETATIVEFLNRWITFSQSIISTLT | – | 0.497 nM | –
